Assay results published in the supplement of paper PMC10126150.
± gives the standard deviation of the averaged measurements.

System: ATP
Test: switch fluorescence ratio, 500 uM ATP over buffer (Cy3 cluster intensity, sum of 5 cycles each) (fold (ratio)); higher = stronger signal-on switching upon ATP binding; sequences stand for … in TCGTCGGCAGCGTCAGATGTGTATAAGAGACAGTTTTTTTTTTTTTTTTTTTTTTTTT…TC
Settings: aptamer strand: ATP DNA aptamer (quencher-CACCTGGGGGAGTATTGCGGAGGAAGG + anchor), 100 nM annealed; ATP concentration: 500 uM
Summary of the method: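 The quencher-labelled ATP aptamer, at 100 nM, was annealed to Cy3-labelled switching-strand clusters on a modified Illumina MiSeq flow-cell. The clusters were imaged in selection buffer, then after 15 min with 500 uM ATP at 22 °C, and this buffer/ATP cycle ran five times with NaOH stripping and re-annealing between runs. Per-cluster fluorescence ratios, summed target-cycle over summed buffer-cycle Cy3 intensity, were averaged per switch-domain sequence. Clusters outside 100-1000 RFU were excluded.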
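Further: ATP exposure 15 min at 22 °C before imaging.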

| Sequence | switch fluorescence ratio |
| --- | --- |
| TAATCGCTAA | 1.13 ± 0.14 |
| TAATCGGGGT | 0.978 ± 0.038 |
| TAATGACGCT | 0.997 ± 0.027 |
| TAATGAGGGA | 1 ± 0.038 |
| TAATGCAGGA | 1.02 ± 0.015 |
| TAATGGAGGG | 0.965 ± 0.047 |
| TAATGGGAAA | 1.04 ± 0.013 |
| TAATGGGACG | 1.08 ± 0.14 |
| TAATGGGGAC | 0.967 ± 0.03 |
| TAATGGGGAG | 0.993 ± 0.014 |
| TAATGGTATG | 0.982 ± 0.039 |
| TAATGGTATT | 0.97547 ± 0.00097 |
| TAATGGTTGC | 0.996 ± 0.014 |
| TAATGGTTTT | 1.02 ± 0.025 |
| TAATGTAACG | 1 ± 0.063 |
| TAATGTAATG | 0.999 ± 0.031 |
| TAATGTGGTA | 0.979 ± 0.056 |
| TAATGTTTGC | 1.01 ± 0.033 |
| TAATTAAATA | 1.04 ± 0.038 |
| TAATTAAGGA | 1.004 ± 0.0096 |
| TAATTAATAG | 0.9971 ± 0.0031 |
| TAATTAATGC | 1.02 ± 0.037 |
| TAATTAGGGG | 1.06 ± 0.083 |
| TAATTATAGC | 1.05 ± 0.049 |
| TAATTATAGT | 1.01 ± 0.011 |
| TAATTCCCGT | 1.01 ± 0.036 |

| Sequence | switch fluorescence ratio |
| --- | --- |
| TAATTCGAG | 1.04 ± 0.029 |
| TAATTCGGAT | 2.07 ± 1.8 |
| TAATTCGTTA | 0.992 ± 0.037 |
| TAATTGAGGC | 1.04 ± 0.017 |
| TAATTGCGGT | 1.007 ± 0.0045 |
| TAATTGGAGA | 0.989 ± 0.014 |
| TAATTGGGTT | 1 ± 0.019 |
| TAATTGT | 0.976 ± 0.03 |
| TAATTGTTAT | 0.986 ± 0.024 |
| TAATTTAAGA | 1.01 ± 0.013 |
| TAATTTAATA | 1.02 ± 0.011 |
| TAATTTAGTG | 0.9858 ± 0.0056 |
| TAATTTCTGC | 0.993 ± 0.018 |
| TAATTTGAAC | 1.02 ± 0.043 |
| TAATTTGCAG | 0.9812 ± 0.0076 |
| TAATTTGTCG | 0.982 ± 0.023 |
| TAATTTGTGT | 1.01 ± 0.014 |
| TAATTTTGGT | 0.9847 ± 0.0068 |
| TAATTTTGTT | 1.02 ± 0.019 |
| TAATTTTTTT | 1.01 ± 0.014 |
| TACAACTTTC | 1.08 ± 0.051 |
| TACAAGCTTT | 0.992 ± 0.024 |
| TACAAGGTCA | 1.01 ± 0.0045 |
| TACAATTTCG | 1.01 ± 0.032 |
| TACACGGGGT | 1.05 ± 0.018 |
| TACACGTTTT | 1.03 ± 0.021 |

| Sequence | switch fluorescence ratio |
| --- | --- |
| TACAGACCCG | 1.07 ± 0.062 |
| TACAGACGAT | 1.3 ± 0.068 |
| TACAGCAGTA | 1.1 ± 0.14 |
| TACAGCGGAG | 0.999 ± 0.066 |
| TACAGGCGTA | 0.9955 ± 0.0069 |
| TACAGGGGGG | 1 ± 0.027 |
| TACAGGGGTA | 1.05 ± 0.012 |
| TACAGGTGTG | 1.24 ± 0.044 |
| TACAGGTTGG | 1.03 ± 0.037 |
| TACAGGTTTT | 0.972 ± 0.073 |
| TACAGTAGGA | 1.06 ± 0.064 |
| TACAGTCAAC | 1.06 ± 0.041 |
| TACATAGGCA | 1.03 ± 0.035 |
| TACATCATCG | 1.14 ± 0.016 |
| TACATCATGG | 1.04 ± 0.019 |
| TACATGAAGA | 1.02 ± 0.013 |
| TACATGAAGG | 0.995 ± 0.019 |
| TACATGGGTA | 0.9583 ± 0.0072 |
| TACATGGTTT | 1.01 ± 0.032 |
| TACATGTCCG | 1.05 ± 0.064 |
| TACATGTCGG | 1.01 ± 0.0022 |
| TACATTAGGC | 1.05 ± 0.018 |
| TACATTCGCG | 1.01 ± 0.035 |
| TACATTGGCT | 0.982 ± 0.019 |
| TACATTTGGG | 0.992 ± 0.021 |
| TACCAAAGAA | 1.04 ± 0.026 |

| Sequence | switch fluorescence ratio |
| --- | --- |
| TACCAATAAG | 1.03 ± 0.044 |
| TACCACGGGT | 1.03 ± 0.018 |
| TACCAGGGTA | 1.05 ± 0.047 |
| TACCATGACC | 1.109 ± 0.0081 |
| TACCATGGTT | 0.9841 ± 0.0061 |
| TACCATTAGT | 1.041 ± 0.0085 |
| TACCCCGGTA | 1.04 ± 0.035 |
| TACCCGCGCG | 1.026 ± 0.003 |
| TACCCGGGTT | 1.11 ± 0.2 |
| TACCGCGGTT | 1.04 ± 0.03 |
| TACCGCGTGG | 1.03 ± 0.017 |
| TACCGCTTGC | 2.01 ± 0.53 |
| TACCGGTGTC | 1.06 ± 0.047 |
| TACCTATTGG | 0.9974 ± 0.0039 |
| TACCTTGGGC | 1.04 ± 0.046 |
| TACCTTTGGG | 1.02 ± 0.032 |
| TACGAAGGGG | 1.02 ± 0.018 |
| TACGAAGTAG | 0.993 ± 0.042 |
| TACGAATCTG | 1.03 ± 0.019 |
| TACGACACCT | 1.73 ± 0.027 |
| TACGATGCTT | 1.2 ± 0.028 |
| TACGCGGGGT | 1.29 ± 0.45 |
| TACGCTTTTT | 1.02 ± 0.055 |
| TACGGGAACG | 1.06 ± 0.018 |
| TACGGGAGTC | 1.06 ± 0.16 |
| TACGGGCACG | 1.04 ± 0.028 |

| Sequence | switch fluorescence ratio |
| --- | --- |
| TACGGGCATA | 1.1 ± 0.049 |
| TACGGGCGCG | 0.981 ± 0.017 |
| TACGGGGCCT | 1.04 ± 0.064 |
| TACGGGGG | 1.01 ± 0.071 |
| TACGGGGGCG | 1.01 ± 0.1 |
| TACGGGGGGT | 1.02 ± 0.026 |
| TACGGTAAAA | 0.986 ± 0.044 |
| TACGGTGGGA | 1.0079 ± 0.00053 |
| TACGGTGTGG | 0.989 ± 0.04 |
| TACGGTTACT | 1.27 ± 0.014 |
| TACGGTTGCA | 1.01 ± 0.017 |
| TACGGTTGGC | 0.989 ± 0.023 |
| TACGTCATTA | 1.2 ± 0.012 |
| TACGTCCCCG | 1.03 ± 0.04 |
| TACGTCCCGA | 1.01 ± 0.045 |
| TACGTGCATT | 1.0476 ± 0.00035 |
| TACGTGCCTC | 0.99 ± 0.02 |
| TACGTGGGGG | 1.02 ± 0.029 |
| TACGTGGTGG | 1.05 ± 0.024 |
| TACGTGTGGG | 1.02 ± 0.038 |
| TACGTTGCAA | 1.22 ± 0.015 |
| TACGTTTGCG | 1.01 ± 0.014 |
| TACGTTTGGG | 0.981 ± 0.031 |
| TACGTTTTTC | 1.003 ± 0.0048 |
| TACTAACATT | 1.14 ± 0.019 |
| TACTAAGGGG | 1.04 ± 0.041 |

| Sequence | switch fluorescence ratio |
| --- | --- |
| TACTAAGTTG | 1.07 ± 0.055 |
| TACTAATGGA | 1.01 ± 0.041 |
| TACTACAGGG | 1.11 ± 0.013 |
| TACTAGTTGT | 0.99 ± 0.022 |
| TACTCATTGT | 1.03 ± 0.021 |
| TACTCGCCAT | 1.13 ± 0.035 |
| TACTCGCTGG | 1.07 ± 0.036 |
| TACTCGGGCT | 1.017 ± 0.0044 |
| TACTCTAAAA | 1.08 ± 0.022 |
| TACTGACGAA | 1.27 ± 0.11 |
| TACTGATAGG | 1.0161 ± 0.00099 |
| TACTGGGTTC | 0.987 ± 0.047 |
| TACTGGTATG | 1.03 ± 0.037 |
| TACTGGTCCT | 1.03 ± 0.038 |
| TACTGGTGGT | 0.992 ± 0.016 |
| TACTGTGACA | 1.14 ± 0.012 |
| TACTGTGGTC | 1.025 ± 0.0053 |
| TACTGTTATG | 1.1 ± 0.099 |
| TACTTAAGTG | 1.02 ± 0.047 |
| TACTTAATAG | 1.03 ± 0.0015 |
| TACTTAGA | 1.04 ± 0.015 |
| TACTTAGCGA | 1.18 ± 0.044 |
| TACTTAGGAT | 1.02 ± 0.044 |
